# Data taken from patent publication US20180258140A1, “NEW DODECAPEPTIDES AND MICROCAPSULES FUNCTIONALISED WITH THEM TARGETED TO FIBROBLASTS” (Infinitec Activos, S.L., priority 2015, published 2018).
# *: point of attachment. Palmitoyl = CCCCCCCCCCCCCCCC(=O)*
# B1: Peptide 2: Palm-Lys-Ala-Asn-Leu-Pro-Leu-Gly-Asn-Tyr-Lys-Lys-Pro-NH2 (peptide)
# peptide: Palmitoyl-KANLPLGNYKKP-NH2
# SMILES: CCCCCCCCCCCCCCCC(=O)N[C@@H](CCCCN)C(=O)N[C@@H](C)C(=O)N[C@@H](CC(N)=O)C(=O)N[C@@H](CC(C)C)C(=O)N1CCC[C@H]1C(=O)N[C@@H](CC(C)C)C(=O)NCC(=O)N[C@@H](CC(N)=O)C(=O)N[C@@H](Cc1ccc(O)cc1)C(=O)N[C@@H](CCCCN)C(=O)N[C@@H](CCCCN)C(=O)N1CCC[C@H]1C(N)=O
# B2: Peptide 7: Palm-Lys-Phe-Asn-Leu-Pro-Leu-Ala-Asn-Tyr-Lys-Lys-Pro-NH2 (peptide)
# peptide: Palmitoyl-KFNLPLANYKKP-NH2
# SMILES: CCCCCCCCCCCCCCCC(=O)N[C@@H](CCCCN)C(=O)N[C@@H](Cc1ccccc1)C(=O)N[C@@H](CC(N)=O)C(=O)N[C@@H](CC(C)C)C(=O)N1CCC[C@H]1C(=O)N[C@@H](CC(C)C)C(=O)N[C@@H](C)C(=O)N[C@@H](CC(N)=O)C(=O)N[C@@H](Cc1ccc(O)cc1)C(=O)N[C@@H](CCCCN)C(=O)N[C@@H](CCCCN)C(=O)N1CCC[C@H]1C(N)=O
# B3: Peptide 4: Palm-Lys-Phe-Asn-Ala-Pro-Leu-Gly-Asn-Tyr-Lys-Lys-Pro-NH2 (peptide)
# peptide: Palmitoyl-KFNAPLGNYKKP-NH2
# SMILES: CCCCCCCCCCCCCCCC(=O)N[C@@H](CCCCN)C(=O)N[C@@H](Cc1ccccc1)C(=O)N[C@@H](CC(N)=O)C(=O)N[C@@H](C)C(=O)N1CCC[C@H]1C(=O)N[C@@H](CC(C)C)C(=O)NCC(=O)N[C@@H](CC(N)=O)C(=O)N[C@@H](Cc1ccc(O)cc1)C(=O)N[C@@H](CCCCN)C(=O)N[C@@H](CCCCN)C(=O)N1CCC[C@H]1C(N)=O
# B4: Peptide 3: Palm-Lys-Phe-Ala-Leu-Pro-Leu-Gly-Asn-Tyr-Lys-Lys-Pro-NH2 (peptide)
# peptide: Palmitoyl-KFALPLGNYKKP-NH2
# SMILES: CCCCCCCCCCCCCCCC(=O)N[C@@H](CCCCN)C(=O)N[C@@H](Cc1ccccc1)C(=O)N[C@@H](C)C(=O)N[C@@H](CC(C)C)C(=O)N1CCC[C@H]1C(=O)N[C@@H](CC(C)C)C(=O)NCC(=O)N[C@@H](CC(N)=O)C(=O)N[C@@H](Cc1ccc(O)cc1)C(=O)N[C@@H](CCCCN)C(=O)N[C@@H](CCCCN)C(=O)N1CCC[C@H]1C(N)=O
# B5: Peptide 8: Palm-Lys-Phe-Asn-Leu-Pro-Leu-Gly-Ala-Tyr-Lys-Lys-Pro-NH2 (peptide)
# peptide: Palmitoyl-KFNLPLGAYKKP-NH2
# SMILES: CCCCCCCCCCCCCCCC(=O)N[C@@H](CCCCN)C(=O)N[C@@H](Cc1ccccc1)C(=O)N[C@@H](CC(N)=O)C(=O)N[C@@H](CC(C)C)C(=O)N1CCC[C@H]1C(=O)N[C@@H](CC(C)C)C(=O)NCC(=O)N[C@@H](C)C(=O)N[C@@H](Cc1ccc(O)cc1)C(=O)N[C@@H](CCCCN)C(=O)N[C@@H](CCCCN)C(=O)N1CCC[C@H]1C(N)=O
# B6: Peptide 1: Palm-Lys-Phe-Asn-Leu-Pro-Leu-Gly-Asn-Tyr-Lys-Lys-Pro-NH2 (peptide)
# peptide: Palmitoyl-KFNLPLGNYKKP-NH2
# SMILES: CCCCCCCCCCCCCCCC(=O)N[C@@H](CCCCN)C(=O)N[C@@H](Cc1ccccc1)C(=O)N[C@@H](CC(N)=O)C(=O)N[C@@H](CC(C)C)C(=O)N1CCC[C@H]1C(=O)N[C@@H](CC(C)C)C(=O)NCC(=O)N[C@@H](CC(N)=O)C(=O)N[C@@H](Cc1ccc(O)cc1)C(=O)N[C@@H](CCCCN)C(=O)N[C@@H](CCCCN)C(=O)N1CCC[C@H]1C(N)=O
# B7: Peptide 9: Palm-Lys-Phe-Asn-Leu-Pro-Leu-Gly-Asn-Ala-Lys-Lys-Pro-NH2 (peptide)
# peptide: Palmitoyl-KFNLPLGNAKKP-NH2
# SMILES: CCCCCCCCCCCCCCCC(=O)N[C@@H](CCCCN)C(=O)N[C@@H](Cc1ccccc1)C(=O)N[C@@H](CC(N)=O)C(=O)N[C@@H](CC(C)C)C(=O)N1CCC[C@H]1C(=O)N[C@@H](CC(C)C)C(=O)NCC(=O)N[C@@H](CC(N)=O)C(=O)N[C@@H](C)C(=O)N[C@@H](CCCCN)C(=O)N[C@@H](CCCCN)C(=O)N1CCC[C@H]1C(N)=O
# B8: Peptide 11: Palm-Lys-Phe-Asn-Leu-Pro-Leu-Gly-Asn-Tyr-Lys-Ala-Pro-NH2 (peptide)
# peptide: Palmitoyl-KFNLPLGNYKAP-NH2
# SMILES: CCCCCCCCCCCCCCCC(=O)N[C@@H](CCCCN)C(=O)N[C@@H](Cc1ccccc1)C(=O)N[C@@H](CC(N)=O)C(=O)N[C@@H](CC(C)C)C(=O)N1CCC[C@H]1C(=O)N[C@@H](CC(C)C)C(=O)NCC(=O)N[C@@H](CC(N)=O)C(=O)N[C@@H](Cc1ccc(O)cc1)C(=O)N[C@@H](CCCCN)C(=O)N[C@@H](C)C(=O)N1CCC[C@H]1C(N)=O
# B9: Peptide 10: Palm-Lys-Phe-Asn-Leu-Pro-Leu-Gly-Asn-Tyr-Ala-Lys-Pro-NH2 (peptide)
# peptide: Palmitoyl-KFNLPLGNYAKP-NH2
# SMILES: CCCCCCCCCCCCCCCC(=O)N[C@@H](CCCCN)C(=O)N[C@@H](Cc1ccccc1)C(=O)N[C@@H](CC(N)=O)C(=O)N[C@@H](CC(C)C)C(=O)N1CCC[C@H]1C(=O)N[C@@H](CC(C)C)C(=O)NCC(=O)N[C@@H](CC(N)=O)C(=O)N[C@@H](Cc1ccc(O)cc1)C(=O)N[C@@H](C)C(=O)N[C@@H](CCCCN)C(=O)N1CCC[C@H]1C(N)=O
# B10: Peptide 6: Palm-Lys-Phe-Asn-Leu-Pro-Ala-Gly-Asn-Tyr-Lys-Lys-Pro-NH2 (peptide)
# peptide: Palmitoyl-KFNLPAGNYKKP-NH2
# SMILES: CCCCCCCCCCCCCCCC(=O)N[C@@H](CCCCN)C(=O)N[C@@H](Cc1ccccc1)C(=O)N[C@@H](CC(N)=O)C(=O)N[C@@H](CC(C)C)C(=O)N1CCC[C@H]1C(=O)N[C@@H](C)C(=O)NCC(=O)N[C@@H](CC(N)=O)C(=O)N[C@@H](Cc1ccc(O)cc1)C(=O)N[C@@H](CCCCN)C(=O)N[C@@H](CCCCN)C(=O)N1CCC[C@H]1C(N)=O
# B11: Peptide 12: Palm-Lys-Phe-Asn-Leu-Pro-Leu-Gly-Asn-Tyr-Lys-Lys-Ala-NH2 (peptide)
# peptide: Palmitoyl-KFNLPLGNYKKA-NH2
# SMILES: CCCCCCCCCCCCCCCC(=O)N[C@@H](CCCCN)C(=O)N[C@@H](Cc1ccccc1)C(=O)N[C@@H](CC(N)=O)C(=O)N[C@@H](CC(C)C)C(=O)N1CCC[C@H]1C(=O)N[C@@H](CC(C)C)C(=O)NCC(=O)N[C@@H](CC(N)=O)C(=O)N[C@@H](Cc1ccc(O)cc1)C(=O)N[C@@H](CCCCN)C(=O)N[C@@H](CCCCN)C(=O)N[C@@H](C)C(N)=O
# B12: Peptide 5: Palm-Lys-Phe-Asn-Leu-Ala-Leu-Gly-Asn-Tyr-Lys-Lys-Pro-NH2 (peptide)
# peptide: Palmitoyl-KFNLALGNYKKP-NH2
# SMILES: CCCCCCCCCCCCCCCC(=O)N[C@@H](CCCCN)C(=O)N[C@@H](Cc1ccccc1)C(=O)N[C@@H](CC(N)=O)C(=O)N[C@@H](CC(C)C)C(=O)N[C@@H](C)C(=O)N[C@@H](CC(C)C)C(=O)NCC(=O)N[C@@H](CC(N)=O)C(=O)N[C@@H](Cc1ccc(O)cc1)C(=O)N[C@@H](CCCCN)C(=O)N[C@@H](CCCCN)C(=O)N1CCC[C@H]1C(N)=O
# Legend:
# Assay in all cases: cell-based or functional assay
# [1] = target: FGFR3 Kinase (UniProt P22607 436-806)
# [2] = target: FGFR4 Kinase (UniProt P22455 460-802, limits assumed)
# [3] = target: human FGFR1 kinase (human, UniProt P11362 398-822, limits assumed)
# human FGFR1 kinase, sequence (P11362 398-822 limits assumed): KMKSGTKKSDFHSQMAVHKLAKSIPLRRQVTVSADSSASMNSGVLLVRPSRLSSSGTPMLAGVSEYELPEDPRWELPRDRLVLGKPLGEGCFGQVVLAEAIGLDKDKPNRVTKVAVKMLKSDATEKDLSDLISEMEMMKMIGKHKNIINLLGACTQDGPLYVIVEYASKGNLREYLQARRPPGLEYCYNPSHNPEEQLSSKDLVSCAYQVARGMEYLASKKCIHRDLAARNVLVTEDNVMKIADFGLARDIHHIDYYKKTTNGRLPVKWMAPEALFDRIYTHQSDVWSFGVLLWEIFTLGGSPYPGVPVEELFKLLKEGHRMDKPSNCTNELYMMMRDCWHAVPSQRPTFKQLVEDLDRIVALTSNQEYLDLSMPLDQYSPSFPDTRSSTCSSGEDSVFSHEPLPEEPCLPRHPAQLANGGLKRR
# FGFR4 Kinase, sequence (P22455 460-802 limits assumed): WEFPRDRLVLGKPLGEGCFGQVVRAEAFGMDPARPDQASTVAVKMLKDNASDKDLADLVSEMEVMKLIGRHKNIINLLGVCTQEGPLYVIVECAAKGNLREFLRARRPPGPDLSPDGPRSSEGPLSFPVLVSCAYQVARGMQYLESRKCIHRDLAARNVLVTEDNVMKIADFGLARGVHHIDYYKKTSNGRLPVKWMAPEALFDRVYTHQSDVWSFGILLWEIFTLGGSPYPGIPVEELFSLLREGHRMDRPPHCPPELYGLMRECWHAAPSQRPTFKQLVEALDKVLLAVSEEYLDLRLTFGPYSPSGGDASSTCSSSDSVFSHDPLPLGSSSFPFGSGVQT
# FGFR3 Kinase, sequence (P22607 436-806 limits assumed): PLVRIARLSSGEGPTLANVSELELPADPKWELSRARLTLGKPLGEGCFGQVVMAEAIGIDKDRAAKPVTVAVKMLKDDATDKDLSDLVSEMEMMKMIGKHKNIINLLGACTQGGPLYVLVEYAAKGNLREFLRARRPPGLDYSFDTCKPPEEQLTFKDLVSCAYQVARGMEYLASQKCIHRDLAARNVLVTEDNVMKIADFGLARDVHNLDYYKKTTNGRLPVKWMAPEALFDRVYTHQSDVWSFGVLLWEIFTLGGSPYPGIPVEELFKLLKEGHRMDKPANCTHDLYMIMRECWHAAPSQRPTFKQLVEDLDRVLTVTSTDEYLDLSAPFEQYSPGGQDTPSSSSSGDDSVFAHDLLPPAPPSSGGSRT
Binder,FGFR3 Kinase % Inhibition [1] [%],FGFR4 Kinase % Inhibition [2] [%],FGFR1 Kinase % Inhibition [3] [%]
B1,38.8,96.4,0
B2,72.9,67.9,0
B3,60.8,0,0
B4,91.9,65.9,85
B5,87.9,89.5,0
B6,75.8,38.7,0
B7,91.6,92.5,15.7
B8,19.3,0,0
B9,0,0,0
B10,78.5,69.8,92.7
B11,46.4,42.3,0
B12,49.6,0,0
